Test results taken from patent US20220380446A1 (ABL BIO, published 2022).

Assays:
[1] = target: T1, monomeric human α-synuclein (Active Human Recombinant Alpha Synuclein Protein Monomer type II, StressMarq … (human, UniProt P37840 1-140)); assay: SPR (Biacore T200), antibody captured on Protein A chip, α-syn monomer as analyte (Monomer-4), 25 °C; Run02; number of the software's 1:1 fit printed under a sensorgram without binding response (the filing's Table 18: No-binding)
Procedure: (§1) The equipment used was Biacore® T200. The anti-α-syn monospecific antibody or the anti-α-syn/IGF1R bispecific antibody was diluted with 1×HBS-EPT. […] Each diluted monomer sample was injected at 60 μL/min onto the Protein A chip surface for 60 seconds, followed by washing with 1×HBS-EP buffer. The dissociation rate was evaluated for 180 seconds. All procedures in association/dissociation phases were done in single cycle kinetics. The chip surface was regenerated by injecting 10 mM glycine-HCl pH 1.5 (GE Healthcare) onto the chip surface for 60 seconds at 30 μL/min, removing residual α-syn monomer/antibody complex. A 1:1 binding model was used for fitting, and the Biacore® T200 Evaluation software was used for evaluation.

[2] = target: T1, monomeric human α-synuclein (Active …); assay: SPR (Biacore T200), antibody captured on Protein A chip, α-syn monomer as analyte (Monomer-1), 25 °C; Run01; number of the software's 1:1 fit printed under a sensorgram without binding response (the filing's Table 18: No-binding)
Procedure: as §1

[3] = target: T2, human α-synuclein pre-formed fibrils (Human Alpha Synuclein Pre-formed Fibrils Type II, StressMarq SPR-317) (human, UniProt P37840 1-140); assay: SPR (Biacore), file name 'Main-ProA', α-syn PFF as analyte (sample PFF-4), single-cycle kinetics, 1:1 Binding fit, 25 °C; Run02
[4] = target: T2, human α-synuclein pre-formed fibrils …; assay: SPR (Biacore), antibody captured on anti-hFab CM3 chip, α-syn PFF as analyte (sample PFF-2), single-cycle kinetics, 1:1 Binding fit, 25 °C; Run2
Procedure: The equipment used was Biacore®. Anti-hFab (Sigma, I5260-1ML) diluted in acetate buffer (pH 5.0) was immobilized on the surface of an CM3 chip (GE Healthcare) by amine coupling. […] All procedures in association and dissociation phases were done in single-cycle kinetics. A 1:1 binding model was used for fitting, and the Biacore® T200 Evaluation software was used for the evaluation.

[5] = target: T2, human α-synuclein pre-formed fibrils …; assay: sandwich ELISA, antibody coated, α-syn PFF added, 7B7-biotin detection
Procedure: Specifically, the antibodies were diluted with PBS by six-fold serial dilution from 400 nM to 0.009 nM. The diluted antibodies were added to a 96-well plate at 100 μL/well for coating. The plate was sealed and incubated at 4° C. for 16 hours. After washing with phosphate-buffered saline with Tween® (PBS-T; 0.05% Tween® 20) five times, the plate was blocked with 5% BSA in PBS 200 μL/well at 37° C. for 2 hours. After washing with PBS-T five times, α-syn PFF (2 μg/mL, 100 μL/well in 2% BSA in PBS) was added to the plate and incubated at 37° C. for 2 hours. After washing with PBS-T five times, 7B7-biotin antibody (anti-α-syn antibody; 1 μg/mL/100 μL/well, in 2% BSA in PBS) was added and incubated at 37° C. for 2 hours. After washing with PBS-T five times, the plate was incubated with horseradish peroxidase (HRP)-bound streptavidin in PBS with 2% BSA (1:5000, 1 mg/mL stock, 20 ng/well, 100 μL/well) at 37° C. for 1 hour. After washing with PBS-T five times, 3,3′,5,5′-tetramethylbenzidine (TMB) (100 μL/well) was added and incubated at room temperature for 5 minutes. The reaction was stopped by the addition of 0.5 N H₂SO₄ (50 μL/well). Optical absorbance at 450 nm was measured by using a plate reader, with absorbance at 650 nm subtracted from the reading.

[6] = target: human α-synuclein oligomers (Dopamine HCL Stabilized Human Recombinant Alpha Synuclein Oligomers, StressMarq … (human, UniProt P37840 1-140)); assay: sandwich ELISA, antibody coated, oligomeric α-syn added, 7B7-biotin detection
Procedure: In this sandwich ELISA, test antibodies were diluted with PBS by five-fold serial dilution from 80 nM to 0.005 nM. The serially diluted antibodies were added to a 96-well plate at 100 μL/well for coating. The plate was sealed and incubated at 4° C. for 16 hours. After washing with PBS-T five times, the plate was blocked with 5% BSA in PBS 200 μL/well at 37° C. for 2 hours. After washing with PBS-T five times, oligomeric α-syn (2 μg/mL, 100 μL/well in 2% BSA in PBS) was added and incubated at 37° C. for 2 hours. After washing with PBS-T five times, 7B7-biotin antibody (1 μg/mL, 100 μL/well, in 2% BSA in PBS) were added and incubated at 37° C. for 2 hours. After washing with PBS-T five times, the plate was incubated with Streptavidin-HRP in 2% BSA in PBS (1:5000, 1 mg/mL stock, 20 ng/well, 100 μL/well) at 37° C. for 1 hour. After washing with PBS-T five times, TMB (100 μL/well) was added and incubated at RT for 5 minutes. The reaction was stopped by the addition of 0.5 N H₂SO₄ (50 μL/well).

koff [1]: 0.537 s⁻¹
kon [1]: 46900 M⁻¹ s⁻¹
koff [2]: 2.23 s⁻¹
kon [2]: 3.57e+07 M⁻¹ s⁻¹
koff [3]: 0.000219 s⁻¹
kon [3]: 1.44e+07 M⁻¹ s⁻¹
koff [4]: 0.000743 s⁻¹
kon [4]: 1.83e+07 M⁻¹ s⁻¹
EC50 [5]: 0.334 nM
EC50 [6]: 3.82 nM
B1: hu1E4(V1_VL1) x Grabody B (bispecific antibody, human IgG1, kappa)
heavy 1: not shown
heavy 2: not shown
light: DIVMTQTPLSLSVTPGQPASISCRSSQSLVHSNGNTYLHWYLQKPGQSPQLLIYKVSNRFSGVPDRFSGSGSGTDFTLKISRVEAEDVGVYYCSQSTHVPRTFGQGTKLEIKRTVAAPSVFIFPPSDEQLKSGTASVVCLLNNFYPREAKVQWKVDNALQSGNSQESVTEQDSKDSTYSLSSTLTLSKADYEKHKVYACEVTHQGLSSPVTKSFNRGEC
notes: Anti-α-syn/IGF1R bispecific; hole heavy chain (M428L) carries the anti-IGF1R scFv Grabody B at its C-terminus through a (G4S)3 linker; knob heavy chain (M428L) without scFv; also called hu1E4(V1 VL1) × Grabody B; 1E4(Ver.1_VL1) × Grabody B
